Measurements as given in PMC5087801.

Target: fluorescein-labeled HMGB1 (full-length) (rat) (UniProt P63159)
Assay: fluorescence polarisation

Chain of UniProt P63159 (P63159 whole entry): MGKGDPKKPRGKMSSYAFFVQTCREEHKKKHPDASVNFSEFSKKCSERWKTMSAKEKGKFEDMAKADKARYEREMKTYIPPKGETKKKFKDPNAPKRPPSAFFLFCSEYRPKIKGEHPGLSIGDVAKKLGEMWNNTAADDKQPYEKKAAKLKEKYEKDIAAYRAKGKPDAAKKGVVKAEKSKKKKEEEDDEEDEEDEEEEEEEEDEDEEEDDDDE

Kd: 2900 nM
Substance: Danio rerio TLR5-N14VLR (drTLR5) (receptor)
